According to patent US20030232051A1:
Values belong to the substance of their own block, whether it stands above or below them.

Key:
Experiment in all cases: cell-based or functional assay
[1] = target: 2B4 (CD244) (on human NK cells) (human) (UniProt Q9BZW8)
[2] = target: CD16 (on human NK cells) (human) (UniProt P08637)
[3] = target: HA-2DL4 (epitope-tagged 2DL4) (human) (UniProt Q99706)
[4] = target: HA-2DL4 (RY-GT) mutant (human) (UniProt Q99706)
HA-2DL4 (RY-GT) mutant (human), sequence (Q99706 24-377, change not shown): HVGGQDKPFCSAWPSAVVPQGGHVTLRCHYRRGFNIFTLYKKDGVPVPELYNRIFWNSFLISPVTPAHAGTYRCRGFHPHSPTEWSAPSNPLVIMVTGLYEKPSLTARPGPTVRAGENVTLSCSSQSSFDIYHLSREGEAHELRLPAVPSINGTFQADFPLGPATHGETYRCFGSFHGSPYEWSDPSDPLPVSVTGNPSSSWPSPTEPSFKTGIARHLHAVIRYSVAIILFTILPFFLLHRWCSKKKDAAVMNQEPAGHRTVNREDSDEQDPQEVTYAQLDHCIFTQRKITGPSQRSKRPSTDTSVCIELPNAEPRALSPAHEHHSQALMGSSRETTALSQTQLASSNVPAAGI

2B4 (CD244) (on human NK cells) (human), sequence (Q9BZW8 22-370): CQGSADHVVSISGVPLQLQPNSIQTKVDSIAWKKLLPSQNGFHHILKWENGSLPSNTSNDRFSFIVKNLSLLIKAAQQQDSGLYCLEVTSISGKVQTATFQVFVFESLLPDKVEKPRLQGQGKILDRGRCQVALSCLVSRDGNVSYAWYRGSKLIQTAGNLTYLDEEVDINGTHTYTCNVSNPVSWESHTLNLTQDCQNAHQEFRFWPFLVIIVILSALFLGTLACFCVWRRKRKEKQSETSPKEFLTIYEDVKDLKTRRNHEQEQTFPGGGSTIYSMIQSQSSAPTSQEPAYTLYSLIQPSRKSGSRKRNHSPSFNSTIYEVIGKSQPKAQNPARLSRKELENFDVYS
CD16 (on human NK cells) (human), sequence (P08637 17-254): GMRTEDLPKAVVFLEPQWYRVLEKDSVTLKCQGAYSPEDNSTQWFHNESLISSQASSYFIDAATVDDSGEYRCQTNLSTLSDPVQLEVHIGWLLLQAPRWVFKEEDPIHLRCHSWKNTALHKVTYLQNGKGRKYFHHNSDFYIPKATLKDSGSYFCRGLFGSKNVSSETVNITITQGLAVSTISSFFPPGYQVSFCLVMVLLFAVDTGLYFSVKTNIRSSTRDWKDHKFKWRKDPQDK
HA-2DL4 (epitope-tagged 2DL4) (human), sequence (Q99706 24-377): as the sequence (Q99706 24-377, change not shown) above

increase in IFN-gamma release by IL-2-activated NK cells with P815 cells over that induced by control IgG (fold over control IgG) [1]: 1.55
increase in IFN-gamma release by resting NK cells with P815 cells over control IgG (fold over control IgG) [1]: 2.1
ratio of lysis of P815 cells by IL-2-activated NK cells over that obtained with control Ig (fold over control Ig) [1]: 3.3
ratio of lysis of P815 cells by resting NK cells over that obtained with control Ig (fold over control Ig) [1]: 3.1
Substance: anti-2B4 mAb C1.7 (IgG1; Beckman Coulter) (antibody)

increase in IFN-gamma release by IL-2-activated NK cells with P815 cells over that induced by control IgG (fold over control IgG) [2]: 20.1
increase in IFN-gamma release by resting NK cells with P815 cells over control IgG (fold over control IgG) [2]: 4.2
ratio of lysis of P815 cells by IL-2-activated NK cells over that obtained with control Ig (fold over control Ig) [2]: 4.8
ratio of lysis of P815 cells by resting NK cells over that obtained with control Ig (fold over control Ig) [2]: 4.9
Substance: anti-CD16 mAb 3G8 (IgG1; Medarex) (antibody)

Substance: anti-HA mAb 16B12 (IgG1; Covance) (antibody)
fold activation of lysis of P815 cells by vaccinia-infected IL-2-activated NK cells (fold over control Ig) [3]: 2.9
fold activation of lysis of P815 cells by vaccinia-infected IL-2-activated NK cells (fold over control Ig) [4]: 0.56
